These results are taken from the supplement of paper PMC7877785.

± gives the uncertainty stated by the source.

The nature of the series: self-splicing fitness, log relative to wild type (ln ratio); higher = more splicing; Tetrahymena group I intron in knt gene, E. coli kanamycin selection, DiMSum; sequences stand for … in CUCUCU…GGAGGGAAAAGUUAUCAGGCAUGCACCUGGUAGCUAGUCUUUAAACCAAUAGAUUGCAUCGGUUUAAAAGGCAAGACCGUCAAAUUGCGGGAAAGGGGUCAACAGCCGUUCAGUACCAAGUCUCAGGGGAAACUUUGAGAUGGCCUUGCAAAGGGUAUGGUAAUAAGCUGACGGACAUGGUCCUAACCACGCAGCCAAGUCCUAAGUCAACAGAUCUUCUGUUGAUAUGGAUGCAGUUCACAGACUAAAUGUCGGUCGGGGAAGAUGUAUUCUUCUCAUAAGAUAUAGUCGGACCUCUCCUUAAUGGGAGCUAGCGGAUGAAGUGAUGCAACACUGGAGCCGCUGGGAACUAAUUUGUAUGCGAAAGUAUAUUGAUUAGUUUUGGAGUACUCGUGGUCG
An outline of the steps:
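Six replicate transformations of E. coli BL21(DE3) with a pET-22b(+) library were grown overnight at 37°C or 30°C. The library randomised all eight P1ex-region intron nucleotides, the intron lying in the knt kanamycin-resistance gene, and plates were LB agar with or without 25 μg/mL kanamycin plus 100 μg/mL carbenicillin, 50 μM IPTG and 0.2% rhamnose. Pooled colonies were amplicon-sequenced on an Illumina HiSeq 2500, and fitness is the DiMSum error-weighted combination of wild-type-normalised replicate fold changes, kanamycin versus none.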

With GGACAGCAAUAUUACGCCCA, the “self-splicing fitness (ln)” value runs as follows: (30 °C) -0.886 ± 0.45; (37 °C) -0.212 ± 0.36.
The matching figures for GGACAGCAAUAUUACGCCUU: -0.676 ± 0.057 and -0.194 ± 0.069.
The matching figures for GGACAGCAAUAUUACGGAAC: -0.76 ± 0.1 and -0.102 ± 0.11.
The matching figures for GGACAGCAAUAUUACGGAAU: -1.19 ± 0.089 and -0.191 ± 0.12.
For GGACAGCAAUAUUACGGCAC, the “self-splicing fitness (ln)” value by setting is: (30 °C) -0.469 ± 0.12; (37 °C) -0.25 ± 0.15.
As to GGACAGCAAUAUUACGGCUC, the “self-splicing fitness (ln)” value (30 °C) came out at 0.0372 ± 0.08 and the “self-splicing fitness (ln)” value (37 °C) stood at 0.377 ± 0.11.
With GGACAGCAAUAUUACGGCUG, the “self-splicing fitness (ln)” value runs as follows: (30 °C) -3.23 ± 0.31; (37 °C) -0.371 ± 0.18.
The matching figures for GGACAGCAAUAUUACGGGGU: -3.5 ± 0.17 and -2.17 ± 0.12.
The matching figures for GGACAGCAAUAUUACGGUCC: -3.67 ± 0.26 and -2.28 ± 0.23.
The matching figures for GGACAGCAAUAUUACGGUGU: -2.84 ± 0.11 and -1.89 ± 0.12.
On to GGACAGCAAUAUUACGGUUG, for which the “self-splicing fitness (ln)” value was -1.41 ± 0.067 (30 °C) and -0.752 ± 0.083 (37 °C).
As to GGACAGCAAUAUUACGGUUU, the “self-splicing fitness (ln)” value runs as follows: (30 °C) -2.12 ± 0.072; (37 °C) -0.504 ± 0.073.
The matching figures for GGACAGCAAUAUUACGUAUC: -0.918 ± 0.093 and -0.855 ± 0.11.
The matching figures for GGACAGCAAUAUUACGUGCA: -0.37 ± 0.085 and -0.64 ± 0.09.
The matching figures for GGACAGCAAUAUUACGUUUG: -0.577 ± 0.04 and -0.1 ± 0.058.
Turning to GGAGAGCAAUAUUACGAAUA, the “self-splicing fitness (ln)” value (30 °C) is -2.51 ± 0.26.
GGAGAGCAAUAUUACGAGUA: the “self-splicing fitness (ln)” value is -3.36 ± 0.41 (30 °C) and -2.48 ± 0.32 (37 °C).
The matching figures for GGAGAGCAAUAUUACGAUCG: -1.88 ± 0.14 and -0.426 ± 0.16.
Regarding GGAGAGCAAUAUUACGCGGA, the “self-splicing fitness (ln)” value (37 °C) was -1.29 ± 0.34.
On to GGAGAGCAAUAUUACGCUCA, for which the “self-splicing fitness (ln)” value (30 °C) is -2.77 ± 0.27 and the “self-splicing fitness (ln)” value (37 °C) was -0.851 ± 0.26.
The matching figures for GGAGAGCAAUAUUACGCUGG: -2.21 ± 0.29 and -2.41 ± 0.44.
In the case of GGAGAGCAAUAUUACGGAUA, the “self-splicing fitness (ln)” value reads like this: (30 °C) -4.36 ± 0.46; (37 °C) -2.05 ± 0.24.
The matching figures for GGAGAGCAAUAUUACGUAAG: -2.82 ± 0.19 and -0.478 ± 0.21.
The matching figures for GGAGAGCAAUAUUACGUGCG: -1.7 ± 0.14 and -2.06 ± 0.23.
As for GGAUAGCAAUAUUACGAAAC, the “self-splicing fitness (ln)” value is -1.67 ± 0.31 (30 °C) and -0.834 ± 0.23 (37 °C).
The matching figures for GGAUAGCAAUAUUACGAAUU: -2.56 ± 0.21 and -1.57 ± 0.19.
For GGAUAGCAAUAUUACGACCC, the “self-splicing fitness (ln)” value (30 °C) is -0.96 ± 0.23.
For the sequence GGAUAGCAAUAUUACGAGGC, the “self-splicing fitness (ln)” value is -3.93 ± 0.31 (30 °C) and -2.43 ± 0.37 (37 °C).
GGAUAGCAAUAUUACGCAGC: the “self-splicing fitness (ln)” value was -3.14 ± 0.25 (30 °C) and -1.59 ± 0.2 (37 °C).
As for GGAUAGCAAUAUUACGCAUG, the “self-splicing fitness (ln)” value (30 °C) was -0.819 ± 0.12 and the “self-splicing fitness (ln)” value (37 °C) amounted to 0.00525 ± 0.14.
Regarding GGAUAGCAAUAUUACGCCGA, the “self-splicing fitness (ln)” value was -0.933 ± 0.13 (30 °C) and -0.0698 ± 0.14 (37 °C).
The matching figures for GGAUAGCAAUAUUACGCGAU: -3.65 ± 0.3 and -2.91 ± 0.47.
The matching figures for GGAUAGCAAUAUUACGCGCA: -0.345 ± 0.14 and 0.0709 ± 0.14.
The matching figures for GGAUAGCAAUAUUACGCGCU: -2.14 ± 0.23 and -0.904 ± 0.23.
GGAUAGCAAUAUUACGCUAG: the “self-splicing fitness (ln)” value is -2.26 ± 0.19 (30 °C) and -1.21 ± 0.18 (37 °C).
For the sequence GGAUAGCAAUAUUACGCUUC, the “self-splicing fitness (ln)” value (30 °C) is -3.86 ± 0.35.
Take GGAUAGCAAUAUUACGGAUG: the “self-splicing fitness (ln)” value is, setting by setting: (30 °C) -3.16 ± 0.33; (37 °C) -0.578 ± 0.18.
The matching figures for GGAUAGCAAUAUUACGGCUA: -0.0854 ± 0.16 and -0.532 ± 0.14.
Turning to GGAUAGCAAUAUUACGGUAG, the “self-splicing fitness (ln)” value (37 °C) was -3.74 ± 0.34.
GGAUAGCAAUAUUACGGUAU: the “self-splicing fitness (ln)” value (30 °C) was -1.48 ± 0.084 and the “self-splicing fitness (ln)” value (37 °C) is -0.924 ± 0.09.
Regarding GGAUAGCAAUAUUACGGUGA, the “self-splicing fitness (ln)” value runs as follows: (30 °C) -2.43 ± 0.1; (37 °C) -1.14 ± 0.091.
The matching figures for GGAUAGCAAUAUUACGUCAC: -2.88 ± 0.27 and -2.05 ± 0.26.
The matching figures for GGAUAGCAAUAUUACGUGGU: -2.33 ± 0.14 and -2.09 ± 0.17.
Regarding GGAUAGCAAUAUUACGUUGA, the “self-splicing fitness (ln)” value by setting is: (30 °C) -3.16 ± 0.24; (37 °C) -1.25 ± 0.18.
The matching figures for GGCAAGCAAUAUUACGAAAU: -0.0122 ± 0.15 and -0.727 ± 0.12.
As for GGCAAGCAAUAUUACGAACC, the “self-splicing fitness (ln)” value runs as follows: (30 °C) -2.41 ± 0.36; (37 °C) -0.982 ± 0.24.
Consider GGCAAGCAAUAUUACGAACG, for which the “self-splicing fitness (ln)” value (30 °C) is -0.449 ± 0.068 and the “self-splicing fitness (ln)” value (37 °C) was -0.593 ± 0.061.
The matching figures for GGCAAGCAAUAUUACGACAU: -0.288 ± 0.012 and 0.141 ± 0.032.
The matching figures for GGCAAGCAAUAUUACGACUU: -0.555 ± 0.082 and 0.226 ± 0.083.
The matching figures for GGCAAGCAAUAUUACGAUCA: -0.849 ± 0.12 and -0.349 ± 0.098.
GGCAAGCAAUAUUACGAUCC: the “self-splicing fitness (ln)” value runs as follows: (30 °C) -1.31 ± 0.22; (37 °C) -0.615 ± 0.27.
The matching figures for GGCAAGCAAUAUUACGAUCU: -0.22 ± 0.097 and -0.162 ± 0.13.
On to GGCAAGCAAUAUUACGCAAG, for which the “self-splicing fitness (ln)” value was -4.16 ± 0.36 (30 °C) and -2.04 ± 0.23 (37 °C).
The matching figures for GGCAAGCAAUAUUACGCAUA: -0.239 ± 0.12 and 0.0644 ± 0.13.
As for GGCAAGCAAUAUUACGCCCG, the “self-splicing fitness (ln)” value (30 °C) is -2.21 ± 0.45.
As to GGCAAGCAAUAUUACGCGAA, the “self-splicing fitness (ln)” value is, setting by setting: (30 °C) -0.953 ± 0.12; (37 °C) 0.499 ± 0.13.
GGCAAGCAAUAUUACGCGGC: the “self-splicing fitness (ln)” value is -3.13 ± 0.28 (30 °C) and -2.88 ± 0.41 (37 °C).
The matching figures for GGCAAGCAAUAUUACGCUAC: -3.33 ± 0.27 and -2.79 ± 0.23.
GGCAAGCAAUAUUACGCUCA: the “self-splicing fitness (ln)” value (30 °C) is -1.21 ± 0.13 and the “self-splicing fitness (ln)” value (37 °C) is 0.321 ± 0.17.
The matching figures for GGCAAGCAAUAUUACGCUUC: -1.44 ± 0.21 and -2.39 ± 0.42.
The matching figures for GGCAAGCAAUAUUACGGCUG: -1.68 ± 0.1 and -0.318 ± 0.16.
The matching figures for GGCAAGCAAUAUUACGGGCG: 0.0849 ± 0.086 and -0.132 ± 0.096.
As for GGCAAGCAAUAUUACGGGGG, the “self-splicing fitness (ln)” value is, setting by setting: (30 °C) -2.86 ± 0.16; (37 °C) -2.54 ± 0.22.
The matching figures for GGCAAGCAAUAUUACGGUAG: -2.27 ± 0.11 and -2.2 ± 0.11.
The matching figures for GGCAAGCAAUAUUACGGUGA: -0.759 ± 0.071 and -0.336 ± 0.077.
The matching figures for GGCAAGCAAUAUUACGGUGG: -2.24 ± 0.11 and -1.81 ± 0.14.
GGCAAGCAAUAUUACGGUUC: the “self-splicing fitness (ln)” value reads like this: (30 °C) -0.000497 ± 0.07; (37 °C) -0.268 ± 0.1.
With GGCAAGCAAUAUUACGUAGC, the “self-splicing fitness (ln)” value by setting is: (30 °C) -2.4 ± 0.33; (37 °C) -2.24 ± 0.32.
The matching figures for GGCAAGCAAUAUUACGUGCA: -0.303 ± 0.068 and -0.635 ± 0.074.
The matching figures for GGCAAGCAAUAUUACGUUAA: -1.09 ± 0.1 and -0.115 ± 0.1.
The matching figures for GGCAAGCAAUAUUACGUUAU: -0.941 ± 0.065 and -0.757 ± 0.071.
As for GGCAAGCAAUAUUACGUUGU, the “self-splicing fitness (ln)” value runs as follows: (30 °C) -3.52 ± 0.16; (37 °C) -2.6 ± 0.21.
For GGCCAGCAAUAUUACGAAAA, the “self-splicing fitness (ln)” value reads like this: (30 °C) -2.32 ± 0.24; (37 °C) -2.23 ± 0.46.
The matching figures for GGCCAGCAAUAUUACGAACA: -3.34 ± 0.28 and -2.03 ± 0.19.
In the case of GGCCAGCAAUAUUACGAGUU, the “self-splicing fitness (ln)” value (30 °C) is -0.659 ± 0.1 and the “self-splicing fitness (ln)” value (37 °C) is -1 ± 0.11.
The matching figures for GGCCAGCAAUAUUACGAUAA: -3.64 ± 0.4 and -1.09 ± 0.15.
The matching figures for GGCCAGCAAUAUUACGAUGG: -4.28 ± 0.33 and -2.67 ± 0.33.
